# Article PMC8584237, “Helicobacter pylori Neutrophil-Activating Protein Directly Interacts with and Activates Toll-like Receptor 2 to Induce the Secretion of Interleukin-8 from Neutrophils and ATRA-Induced Differentiated HL-60 Cells” (International Journal of Molecular Sciences, 2021)
# B1: Helicobacter pylori neutrophil-activating protein (natural protein)
# chain: MKTFEILKHLQADAIVLFMKVHNFHWNVKGTDFFNVHKATEEIYEEFADMFDDLAERIVQLGHHPLVTLSEAIKLTRVKEETKTSFHSKDIFKEILEDYKYLEKEFKELSNTAEKEGDKVTVTYADDQLAKLQKSIWMLQAHLA
# notes: also called HP-NAP; NAP; source: E. coli BL21(DE3) carrying pET42a-NAP, purified (two gel-filtration steps: Sephacryl S-300, Superdex 200; endotoxin removed); copies: 12
# Molecular target: T1, Recombinant human TLR2 protein Glu21-Leu590, with a C-terminal 10-His tag (human, UniProt O60603 21-590)
# T1 construct: Human Toll-like receptor 2, residues Glu21-Leu590; In the functional rows the TLR2 is the endogenous receptor on neutrophils or ATRA-differentiated HL-60 cells, not this soluble construct; also called TLR2-10xHis; Toll-like receptor 2; source: bought: R&D Systems (Cat. # 2616-TR-050); not shown: His10, C-terminal, kept
# Test: ELISA; Competitive ELISA: 0.625 μg TLR2-10xHis in 100 µL PBS-T pre-incubated with 0.78125-50 μg Pam3CSK4 or BSA (control), then added to wells coated with 0.05 µg HP-NAP, room temperature 2 h; detected with anti-6x His tag antibody
# Conditions: both partners purified
# T1 sequence (O60603 21-590): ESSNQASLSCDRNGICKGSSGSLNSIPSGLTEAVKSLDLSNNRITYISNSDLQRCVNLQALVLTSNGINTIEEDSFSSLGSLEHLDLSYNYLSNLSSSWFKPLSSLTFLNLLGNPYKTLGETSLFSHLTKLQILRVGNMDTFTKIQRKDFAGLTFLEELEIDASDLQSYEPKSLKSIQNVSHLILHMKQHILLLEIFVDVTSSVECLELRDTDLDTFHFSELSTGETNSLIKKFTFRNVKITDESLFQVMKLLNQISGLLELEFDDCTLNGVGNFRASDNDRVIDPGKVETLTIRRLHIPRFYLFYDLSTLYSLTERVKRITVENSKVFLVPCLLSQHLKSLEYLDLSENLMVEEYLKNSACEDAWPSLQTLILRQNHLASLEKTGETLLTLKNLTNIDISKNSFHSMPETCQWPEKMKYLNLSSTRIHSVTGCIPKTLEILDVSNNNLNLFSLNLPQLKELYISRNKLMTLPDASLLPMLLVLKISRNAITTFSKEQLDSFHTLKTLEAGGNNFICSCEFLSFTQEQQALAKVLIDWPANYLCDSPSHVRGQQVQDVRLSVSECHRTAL
binder,measurement,value
B1,binding result,binds
